According to the RNAGym collection of RNA variant scans (doi:10.7554/elife.80360):

B1: HDV Ribozyme (parent)
chain: GGCCGGCAUGGUCCCAGCCUCCUCGCUGGCGCCGGCUGGGCAACAUUCCGAGGGGACCGUCCCCUCGGUAAUGGCGAAUGGGACCCA

Variants of: B1
Experiment: self-cleavage, relative activity (ratio to wild type); higher = more cleavage; co-transcriptional

Row | Variant | self-cleavage
1 | GGCCGGCAUGGUCACAGCCUCCUCGCUGGCGCCGGCUGGGCAACAUUCCGAGGGGCCCGUCCCCUCGGUAAUGGCGAAUGGGACCCA [C14A A56C] | 0.539
2 | GGCCGGCAUGGUCACAGCCUCCUCGCUGGCGCCGGCUGGGCAACAUUCCGAGGGGGCCGUCCCCUCGGUAAUGGCGAAUGGGACCCA [C14A A56G] | 0.57
3 | GGCCGGCAUGGUCACAGCCUCCUCGCUGGCGCCGGCUGGGCAACAUUCCGAGGGGACCGUCCCCUCGGUAAUGGCGAAUGGGACCCA [C14A] | 0.761
4 | GGCCGGCAUGGUUCCAGCCUCCUCGCUGGCGCCGGCUGGGCAACAUGCCGAGGGGACCGUCCCCUCGGUAAUGGCGAAUGGGACCCA [C13U U47G] | 0.95
5 | GGCCGGCAUGGUUCCAGCCUCCUCGCUGGCGCCGGCUGGGCAACAUCCCGAGGGGACCGUCCCCUCGGUAAUGGCGAAUGGGACCCA [C13U U47C] | 0.489
6 | GGCCGGCAUGGUUCCAGCCUCCUCGCUGGCGCCGGCUGGGCAACAUUCCGAGGGGACCGUCCCCUCGGGAAUGGCGAAUGGGACCCA [C13U U69G] | 0.7
7 | GGCCGGCAUGGUUCCAGCCUCCUCGCUGGCGCCGGCUGGGCAACAUUCCGAGGGGACCGUCCCCUCGGAAAUGGCGAAUGGGACCCA [C13U U69A] | 0.8
8 | GGCCGGCAUGGUCACAGCCUCCUCGCUGGCGCCGGCUGGGCAACAUUCCGAGGGGACCGUCCCCUCGGUAAUGGCGGAUGGGACCCA [C14A A77G] | 0.755
9 | GGCCGGCAUGGUUCCAGCCUCCUCGCUGGCGCCGGCUGGGCAACAAUCCGAGGGGACCGUCCCCUCGGUAAUGGCGAAUGGGACCCA [C13U U46A] | 0.219
10 | GGCCGGCAUGGUUCCAGCCUCCUCGCUGGCGCCGGCUGGGCAACACUCCGAGGGGACCGUCCCCUCGGUAAUGGCGAAUGGGACCCA [C13U U46C] | 0.138
11 | GGCCGGCAUGGUCACAGCCUCCUCGCUGGCGCCGGCUGGGCCACAUUCCGAGGGGACCGUCCCCUCGGUAAUGGCGAAUGGGACCCA [C14A A42C] | 0.0369
12 | GGCCGGCAUGGUCACAGCCUCCUCGCUGGCGCCGGCUGGGCGACAUUCCGAGGGGACCGUCCCCUCGGUAAUGGCGAAUGGGACCCA [C14A A42G] | 0.277
13 | GGCCGGCAUGGUCACAGCCUCCUCGCUGGCGCCGGCUGGGCAACAUUCCGAGGGGACCGUCCCCUCGGUUAUGGCGAAUGGGACCCA [C14A A70U] | 0.344
14 | GGCCGGCAUGGUCACAGCCUCCUCGCUGGCGCCGGCUGGGCAACAUUCCGAGGGGACCGUCCCCUCGGUGAUGGCGAAUGGGACCCA [C14A A70G] | 0.665
15 | GGCCGGCAUGGUUCCAGCCUCCUCGCUGGCGCCGGCCGGGCAACAUUCCGAGGGGACCGUCCCCUCGGUAAUGGCGAAUGGGACCCA [C13U U37C] | 0.369
16 | GGCCGGCAUGGUUCCAGCCUCCUCGCUGGCGCCGGCAGGGCAACAUUCCGAGGGGACCGUCCCCUCGGUAAUGGCGAAUGGGACCCA [C13U U37A] | 0.0308

Row | Variant | self-cleavage
17 | GGCCGGCAUGGUUCCAGCCUCCUCGCUGGCGCCGGCGGGGCAACAUUCCGAGGGGACCGUCCCCUCGGUAAUGGCGAAUGGGACCCA [C13U U37G] | 0.138
18 | GGCCGGCAUGGUCACAGCCUCCUCGCUGGCGCCGGCUGGGCAACAUUCCGAGGGGACCGUCCCCUCGGUAGUGGCGAAUGGGACCCA [C14A A71G] | 0.499
19 | GGCCGGCAUGGUCACAGCCUCCUCGCUGGCGCCGGCUGGGCAACAUUCCGAGGGGACCGUCCCCUCGGUAUUGGCGAAUGGGACCCA [C14A A71U] | 0.852
20 | GGCCGGCAUGGUUCCAGCCUCCUCGCUGGCGCCGGCUGGGCAACAUUCCGAGGGGACCGUCCCCUCGGUAAUGGCGAAAGGGACCCA [C13U U79A] | 0.256
21 | GGCCGGCAUGGUCACAGCCUCCUCGCUGGCGCCGGCUGGGCAACAUUCCGUGGGGACCGUCCCCUCGGUAAUGGCGAAUGGGACCCA [C14A A51U] | 0.779
22 | GGCCGGCAUGGUCACAGCCUCCUCGCUGGCGCCGGCUGGGCAACAUUCCGGGGGGACCGUCCCCUCGGUAAUGGCGAAUGGGACCCA [C14A A51G] | 0.755
23 | GGCCGGCAUGGUCACAGCCUCCUCGCUGGCGCCGGCUGGGCAUCAUUCCGAGGGGACCGUCCCCUCGGUAAUGGCGAAUGGGACCCA [C14A A43U] | 0.145
24 | GGCCGGCAUGGUCACAGCCUCCUCGCUGGCGCCGGCUGGGCACCAUUCCGAGGGGACCGUCCCCUCGGUAAUGGCGAAUGGGACCCA [C14A A43C] | 0.0396
25 | GGCCGGCAUGGUCACAGCCUCCUCGCUGGCGCCGGCUGGGCAGCAUUCCGAGGGGACCGUCCCCUCGGUAAUGGCGAAUGGGACCCA [C14A A43G] | 0
26 | GGCCGGCAUGGUCACAGCCUCCUCGCUGGCGCCGGCUGGGCAACUUUCCGAGGGGACCGUCCCCUCGGUAAUGGCGAAUGGGACCCA [C14A A45U] | 0.467
27 | GGCCGGCAUGGUCACCGCCUCCUCGCUGGCGCCGGCUGGGCAACAUUCCGAGGGGACCGUCCCCUCGGUAAUGGCGAAUGGGACCCA [C14A A16C] | 0.755
28 | GGCCGGCAUGGUUCCAGCCUCCUCGCUGGCGCCGGCUGGGCAACAUUCCGAGGGGACCGUCCCCUCGGUAAAGGCGAAUGGGACCCA [C13U U72A] | 0.128
29 | GGCCGGCAUGGUUCCAGCCUCCUCGCUGGCGCCGGCUGGGCAACAUUCCGAGGGGACCGUCCCCUCGGUAACGGCGAAUGGGACCCA [C13U U72C] | 0.252
30 | GGCCGGCAUGGUUCCAGCCUCCUCGCUGGCGCCGGCUGGGCAACAUUCCGAGGGGACCGUCCCCUCGGUAAGGGCGAAUGGGACCCA [C13U U72G] | 0.266
31 | GGCCGGCAUGGUUCCAGCCUCCUCGCUGGCGCCGGCUGGGCAACAUUCCGAGGGGACCGGCCCCUCGGUAAUGGCGAAUGGGACCCA [C13U U60G] | 0.831
32 | GGCCGGCAUGGUUCCAGCCUCCUCGCUGGCGCCGGCUGGGCAACAUUCCGAGGGGACCGCCCCCUCGGUAAUGGCGAAUGGGACCCA [C13U U60C] | 0.831
